Measurements published in patent publication US20160009768A1.

Biological target: elongation factor-2 (EF-2) (rabbit) (UniProt P55823)
Experiment: cell-based or functional assay

Substance	inhibition of transcription/translation of T7-luc plasmid in IVTT [%]
DT382 (G53E): Null construct (from UniProt P00587 26-406) (enzyme)	20
wild type DT382 (from UniProt P00587 26-406) (enzyme)	90
